# Laboratory results published in US20150368338A1 (Janssen / Centocor, published 2015).
# Residue numbers refer to the chain shown, from its start.
# T1: IFN-αF (human, UniProt P01568 24-189)
# T1 chain: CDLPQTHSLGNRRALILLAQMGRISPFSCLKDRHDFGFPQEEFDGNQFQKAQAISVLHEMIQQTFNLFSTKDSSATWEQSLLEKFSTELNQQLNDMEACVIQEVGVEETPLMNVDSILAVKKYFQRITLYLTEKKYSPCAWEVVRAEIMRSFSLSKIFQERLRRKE
# B1: IFWM371 (antibody, IgG1, V domains shown)
# VH: EVQLVQSGAEVKKPGESLKISCKGSGYSFTSYWIGWVRQMPGKGLEWMGIIDPSDSDTRYSPSFQGQVTISADKSISTAYLQWSSLKASDTAMYYCARHPGLNWAPDFDYWGQGTLVTVSS
# VL: not shown
# B2: IFWM3304 (antibody, IgG1, V domains shown)
# VH: B1 VH
# VL: DIQMTQSPSSLSASVGDRVTITCRASQSIGSALNWYQQKPGKAPKLLIYFASSLQSGVPSRFSGSGSGTDFTLTISSLQPEDFATYYCQQSYDFPLTFGQGTKVEIK
# B3: IFWM3307 (antibody, IgG1, V domains shown)
# VH: B1 VH
# VL: B2 VL with S31D, A32F, S91A, Y92L
# B4: IFWM3308 (antibody, IgG1, V domains shown)
# VH: B1 VH
# VL: B2 VL with G30A, S31E, A32F, Y92I
# B5: IFWM3310 (antibody, IgG1, V domains shown)
# VH: B1 VH
# VL: B2 VL with S31K, A32S
# B6: IFWM3314 (antibody, IgG1, V domains shown)
# VH: B1 VH
# VL: B2 VL with G30D, S31R, Y92F
# B7: IFWM3385 (antibody, IgG1, V domains shown)
# VH: B1 VH with N103A
# VL: B2 VL with S31D, A32F, S91A, Y92L
# notes: mAb; IgG1/kappa said of the parent and of selected mAbs; also called IFWB3120
# B8: IFWM3399 (antibody, IgG1, V domains shown)
# VH: B1 VH with N103A
# VL: B2 VL with G30D, S31G, S91A
# notes: mAb; IgG1/kappa said of the parent and of selected mAbs; also called IFWB3134
# B9: IFWM3400 (antibody, IgG1, V domains shown)
# VH: B1 VH with N103A
# VL: B2 VL with G30A, S31D, A32F, Y92H, D93S
# notes: mAb; IgG1/kappa said of the parent and of selected mAbs; also called IFWB3135
# B10: IFWM3405 (antibody, IgG1, V domains shown)
# VH: B1 VH with N103A
# VL: DIQMTQSPSSLSASVGDRVTITCRASQSIANNNLNWYQQKPGKAPKLLIHWASSLQSGVPSRFSGSGSGTDFTLTISSLQPEDFATYYCQQGYDTPFTFGQGTKVEIK
# notes: mAb; IgG1/kappa said of the parent and of selected mAbs; also called IFWB3140
# B11: IFWM3410 (antibody, IgG1, V domains shown)
# VH: B1 VH with N103A
# VL: B10 VL with N32T, G92W, T95N, F97L
# notes: mAb; IgG1/kappa said of the parent and of selected mAbs; also called IFWB3145
# B12: IFWM3416 (antibody, IgG1, V domains shown)
# VH: B1 VH with N103A
# VL: B10 VL with A30R, N32T
# notes: mAb; IgG1/kappa said of the parent and of selected mAbs; also called IFWB3151
# B13: IFWM3307 (antibody, IgG1, V domains shown)
# VH: B1 VH
# VL: B2 VL with S31D, A32F, S91A, Y92L
# B14: IFWM3308 (antibody, IgG1, V domains shown)
# VH: B1 VH
# VL: B2 VL with G30A, S31E, A32F, Y92I
# B15: IFWM3310 (antibody, IgG1, V domains shown)
# VH: B1 VH
# VL: B2 VL with S31K, A32S
# B16: IFWM3314 (antibody, IgG1, V domains shown)
# VH: B1 VH
# VL: B2 VL with G30D, S31R, Y92F
# B17: IFWM3320 (antibody, IgG1, V domains shown)
# VH: B1 VH
# VL: B2 VL with G30N, S31G, A32V, Y92H
# B18: IFWM3321 (antibody, IgG1, V domains shown)
# VH: B1 VH
# VL: B2 VL with G30D, S31G, S91A
# B19: IFWM3322 (antibody, IgG1, V domains shown)
# VH: B1 VH
# VL: B2 VL with G30A, S31D, A32F, Y92H, D93S
# B20: IFWM3328 (antibody, IgG1, V domains shown)
# VH: B1 VH
# VL: DIQMTQSPSSLSASVGDRVTITCRASQSINNLNWYQQKPGKAPKLLIYWASSLQSGVPSRFSGSGSGTDFTLTISSLQPEDFATYYCQQGYDTPFTFGQGTKVEIK
# Target: IFN-α4a (human, UniProt P05014 24-189)
# Test: cell-based or functional assay
row,"IC50 (pM), ISRE assay",Binder
1,32800 pM,B1
2,112 pM,B2
3,501 pM,B3
4,295 pM,B4
5,169 pM,B5
6,137 pM,B6

# Target: IFN-αWA (human, UniProt P05015 24-189)
# Test: cell-based or functional assay
row,"IC50 (pM), ISRE assay",Binder
1,74200 pM,B1
2,237 pM,B2
3,600 pM,B3
4,894 pM,B4
5,473 pM,B5
6,188 pM,B6

# Target: human IFN-ω (human, UniProt P05000 24-195)
# Test: cell-based or functional assay
row,"IC50 (pM), ISRE assay",Binder
1,43900 pM,B1
2,31 pM,B2
3,100 pM,B3
4,40 pM,B4
5,81 pM,B5
6,32 pM,B6

# Target: IFN-αJ1 (human, UniProt P01567 24-189)
# Test: cell-based or functional assay
row,"IC50 (pM), ISRE assay",Binder
1,35700 pM,B1
2,126 pM,B2
3,328 pM,B3
4,363 pM,B4
5,166 pM,B5
6,86 pM,B6

# Target: IFN-αK (human, UniProt P05013 24-189)
# Test: cell-based or functional assay
row,"IC50 (pM), ISRE assay",Binder
1,7300 pM,B1
2,57 pM,B2
3,95 pM,B3
4,59 pM,B4
5,96 pM,B5
6,65 pM,B6

# Target: IFN-αI (human, UniProt P01571 24-189)
# Test: cell-based or functional assay
row,"IC50 (pM), ISRE assay",Binder
1,157 pM,B2
2,752 pM,B3
3,478 pM,B4
4,258 pM,B5
5,163 pM,B6

# Target: T1, IFN-αF
# Test: cell-based or functional assay
row,"IC50, ISRE assay",Binder
1,0.066 nM,B7
2,0.029 nM,B8
3,0.043 nM,B9
4,0.035 nM,B10
5,0.077 nM,B11
6,0.064 nM,B12
7,0.17 nM,B13
8,0.155 nM,B14
9,0.111 nM,B15
10,0.058 nM,B16
11,0.054 nM,B17
12,0.054 nM,B18
13,0.117 nM,B19
14,0.631 nM,B20

# Target: T2, IFN-αC (human, UniProt P01566 24-189)
# Test: cell-based or functional assay
row,"IC50, ISRE assay",Binder
1,0.272 nM,B7
2,0.189 nM,B8
3,0.138 nM,B9
4,0.068 nM,B10
5,0.168 nM,B11
6,0.112 nM,B12
7,0.583 nM,B13
8,0.996 nM,B14
9,0.196 nM,B15
10,0.157 nM,B16
11,0.392 nM,B17
12,0.266 nM,B18
13,0.306 nM,B19
14,1.42 nM,B20

# Target: T3, IFN-αG (human, UniProt P01569 24-189)
# Test: cell-based or functional assay
row,"IC50, ISRE assay",Binder
1,0.077 nM,B7
2,0.029 nM,B8
3,0.035 nM,B9
4,0.026 nM,B10
5,0.055 nM,B11
6,0.049 nM,B12
7,0.095 nM,B13
8,0.167 nM,B14
9,0.073 nM,B15
10,0.057 nM,B16
11,0.082 nM,B17
12,0.034 nM,B18
13,0.083 nM,B19
14,0.486 nM,B20

# Target: IFN-αH2 (human, UniProt P01570 24-189)
# Test: cell-based or functional assay
row,"IC50, ISRE assay",Binder
1,0.029 nM,B7
2,0.013 nM,B8
3,0.015 nM,B9
4,0.016 nM,B10
5,0.033 nM,B11
6,0.035 nM,B12
7,0.088 nM,B13
8,0.032 nM,B14
9,0.045 nM,B15
10,0.04 nM,B16
11,0.023 nM,B17
12,0.028 nM,B18
13,0.046 nM,B19
14,0.44 nM,B20

# Target: T4, human IFN-ω (human, UniProt P05000 24-195)
# T4 construct: Recombinant, HEK293; also called interferon omega
# Test: ProteOn SPR, cell supernatant;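 further: each binding measurement used just a single antigen concentration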
row,Kd,Binder
1,0.032 nM,B7
2,0.03 nM,B8
3,0.033 nM,B9
4,0.02 nM,B10
5,0.029 nM,B11
6,0.028 nM,B12

# Target: T5, IFN-αJ1 (human, UniProt P01567 24-189)
# T5 construct: Recombinant, HEK293; also called IFN-α7
# Test: ProteOn SPR, cell supernatant;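 further: each binding measurement used just a single antigen concentration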
row,Kd,Binder
1,0.142 nM,B7
2,0.05 nM,B8
3,0.06 nM,B9
4,0.036 nM,B10
5,0.082 nM,B11
6,0.068 nM,B12

# Target: T1, IFN-αF
# Test: ProteOn SPR, cell supernatant;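 further: each binding measurement used just a single antigen concentration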
row,Kd,Binder
1,0.041 nM,B7
2,0.021 nM,B8
3,0.022 nM,B9
4,0.019 nM,B10
5,0.052 nM,B11
6,0.045 nM,B12

# Target: T6, IFN-α4a (human, UniProt P05014 24-189)
# T6 construct: Recombinant, HEK293; also called IFN-αM1
# Test: ProteOn SPR, cell supernatant;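 further: each binding measurement used just a single antigen concentration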
row,Kd,Binder
1,0.178 nM,B7
2,0.088 nM,B8
3,0.135 nM,B9
4,0.067 nM,B10
5,0.086 nM,B11
6,0.103 nM,B12

# Target: T2, IFN-αC
# Test: ProteOn SPR, cell supernatant;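 further: each binding measurement used just a single antigen concentration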
row,Kd,Binder
1,0.041 nM,B7
2,0.025 nM,B8
3,0.023 nM,B9
4,0.022 nM,B10
5,0.037 nM,B11
6,0.029 nM,B12

# Target: T7, IFN-αWA (human, UniProt P05015 24-189)
# T7 construct: Recombinant, HEK293; also called IFN-α16
# Test: ProteOn SPR, cell supernatant;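 further: each binding measurement used just a single antigen concentration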
row,Kd,Binder
1,0.052 nM,B7
2,0.037 nM,B8
3,0.049 nM,B9
4,0.039 nM,B10
5,0.052 nM,B11
6,0.069 nM,B12

# Target: T3, IFN-αG
# Test: ProteOn SPR, cell supernatant
row,Kd,Binder
1,0.023 nM,B7
2,0.03 nM,B8
3,0.052 nM,B9
4,0.015 nM,B10
5,0.052 nM,B11
6,0.029 nM,B12
